Substitutions are numbered along the chain they refer to.
B1: SEQ ID NO 106 (designed binder)
chain: MGSWHEFDQRLWAIEERLWALGGSEAELAAFEKEIAAFESELQAYKGKGNPEVETLRLYAALIRHDLQAYRHN
B2: SEQ ID NO 107 (designed binder)
chain: B1 chain with H5I, D8E, Q9S, E16D, W19L, T55F, Y59E, L62D, H65E
B3: SEQ ID NO 99 (designed binder)
chain: MGSWDEFGRRLYAIEWRLYALGGSEAELAAFEKEIAAFESELQAYKGKGNPEVEKLREIAAVIRSNLQAYRHN
notes: also called cg06
B4: SEQ ID NO 108 (designed binder)
chain: MGSWYEFENRLGAIGDRLWALGGSEAELAAFEKEIAAFESELQAYKGKGNPEVEWLRDEAAYIRAVLQAYRHN
B5: SEQ ID NO 64 (designed binder)
chain: MGSWWEFEDRLWAIDRRLMALGGSEAELAVFEQMIAHFEQILQVYKGKGNPEVEALHFEAHAIGMELAAYRHN
B6: SEQ ID NO 109 (designed binder)
chain: MGSWNEFYDRLSAIYFRLQALGGSEAELAAFEKEIAAFESELQAYKGKGNPEVEHLRWYAADIRMILQAYRHN
B7: SEQ ID NO 117 (designed binder)
chain: B6 chain with N5Y, D9N, F16A, H55D, M65Y, I66M
B8: SEQ ID NO 116 (designed binder)
chain: B6 chain with N5V, S12H, Q19L, H55D, M65L, I66V
B9: SEQ ID NO 100 (designed binder)
chain: MGSWIEFYDRLEAIYDRLDALGGSEAELAAFEKEIAAFESELQAYKGKGNPEVEWLREDAAFIRSWLQAYRHN
B10: SEQ ID NO 110 (designed binder)
chain: B4 chain with N9Y, G12E, G15E, W55Y, D58E, Y62W, A65V, V66W
B11: SEQ ID NO 104 (designed binder)
chain: B9 chain with I5T, Y8H, Y15D, D19W, W55Y, D59E, F62Q, S65W, W66E
B12: SEQ ID NO 120 (designed binder)
chain: B4 chain with G12E, G15E, D16E, W55M, D58E, Y62F, A65D, V66W
B13: SEQ ID NO 111 (designed binder)
chain: B9 chain with I5V, Y8E, D9N, Y15E, D16N, D19W, F62Q, S65M, W66M
B14: SEQ ID NO 112 (designed binder)
chain: B4 chain with E8W, N9D, G12E, G15D, W55A, D58Q, Y62W, A65E, V66E
B15: SEQ ID NO 122 (designed binder)
chain: B9 chain with Y8E, Y15E, D19F, E58Q, D59E, F62E, S65L, W66M
B16: SEQ ID NO 115 (designed binder)
chain: MGSWWEFEMRLEAIEDRLFALGGSEAELAAFEKEIAAFESELQAYKGKGNPEVESLRWEAAFIRDILQAYRHN
B17: SEQ ID NO 65 (designed binder)
chain: MGSWEEFHERLDAIDERLEALGGSEAELAFFEDDIASFEDWLQWYKGKGNPEVEALSREADAINFELEAYRHN
B18: SEQ ID NO 95 (designed binder)
chain: MGSWDEFYYRLEAIEMRLGALGGSEAELAAFEKEIAAFESELQAYKGKGNPEVEELRHYAAQIRHMLQAYRHN
B19: SEQ ID NO 105 (designed binder)
chain: MGSWYEFHHRLDAIYERLLALGGSEAELAAFEKEIAAFESELQAYKGKGNPEVEWLRSSAANIRKELQAYRHN
B20: SEQ ID NO 123 (designed binder)
chain: B19 chain with Y5T, H8N, H9L, E16D, L19M, S58A, N62A, K65V
B21: SEQ ID NO 124 (designed binder)
chain: B9 chain with I5S, D9L, E12D, E58K, D59T, F62N, S65E, W66E
B22: SEQ ID NO 125 (designed binder)
chain: B19 chain with Y5S, H9V, E16A, L19D, W55R, S58E, S59W, K65R
B23: SEQ ID NO 113 (designed binder)
chain: MGSWFEFWDRLDAIEDRLYALGGSEAELAAFEKEIAAFESELQAYKGKGNPEVEELRDEAAWIRGTLQAYRHN
B24: SEQ ID NO 118 (designed binder)
chain: B23 chain with D9G, D12E, D16S, Y19K, D58E, E59H, G65A, T66Y
B25: SEQ ID NO 61 (designed binder)
chain: MGSWVEFEYRLDAISDRLWALGGSEAELAFFENEIASFESDLQFYKGKGNPEVEALMFEAEAIDDELHAYRHN
B26: SEQ ID NO 63 (designed binder)
chain: MGSWYEFEERLDAIEDRLIALGGSEAELAIFEDIIAFFEQDLQYYKGKGNPEVEALEMEAEAISIELDAYRHN
B27: SEQ ID NO 119 (designed binder)
chain: MGSWTEFSIRLEAIYDRLVALGGSEAELAAFEKEIAAFESELQAYKGKGNPEVEVLRTYAANIRHELQAYRHN
B28: SEQ ID NO 121 (designed binder)
chain: B27 chain with T5Y, S8V, Y15E, V19W, T58W, N62D
B29: SEQ ID NO 127 (designed binder)
chain: B27 chain with T5Y, I9M, E12D, V19M, V55Q, T58G, H65N
B30: SEQ ID NO 126 (designed binder)
chain: B27 chain with T5H, S8G, I9V, E12D, V19M, V55F, T58Q, Y59A, H65S
B31: SEQ ID NO 62 (designed binder)
chain: MGSWYEFEDRLAAIEARLWALGGSEAELADFEEEIAYFEHGLQWYKGKGNPEVEALESEAMAIIDELHAYRHN
B32: SEQ ID NO 60 (designed binder)
chain: MGSWIEFEDRLDAITDRLWALGGSEAELAEFEHQIAFFEEDLQWYKGKGNPEVEALHMEAEAIMEELGAYRHN

molecular target: T1, CD123 (target of Example 19) (Homo sapiens (Human), UniProt P26951 19-305, limits assumed); assay: library selection; assay not described
T1 sequence: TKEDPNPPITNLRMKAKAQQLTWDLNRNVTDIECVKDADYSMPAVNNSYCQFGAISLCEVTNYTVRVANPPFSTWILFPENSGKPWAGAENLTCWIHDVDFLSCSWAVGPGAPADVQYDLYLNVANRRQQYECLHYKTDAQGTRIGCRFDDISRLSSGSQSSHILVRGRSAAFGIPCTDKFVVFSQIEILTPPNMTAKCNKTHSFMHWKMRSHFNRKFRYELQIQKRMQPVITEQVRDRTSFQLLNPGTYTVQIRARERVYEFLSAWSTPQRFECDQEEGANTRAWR

Binding result, binds:
B1, B2, B3, B4, B5, B6, B7, B8, B9, B10, B11, B12, B13, B14, B15, B16, B17, B18, B19, B20, B21, B22, B23, B24, B25, B26, B27, B28, B29, B30, B31, B32
